Values quoted from earlier work as cited in patent publication US20060289354A1, “Method and composition to control the growth of microorganisms in aqueous systems and on substrates” (Buckman Laboratories International, Inc., priority 2005, published 2006).
Where two headings read alike, the source gives them in different places.

Details: for shelf life: original sealed package

lactoperoxidase [LP]
effect of exposure to elevated temperature (>65° C. for short time (10 minutes)): denaturation of the protein and loss of the activity | shelf life (8° C.): ≥ 2 years | shelf life (20° C.): at least 1 year | optimal pH (typical commercial form): 5.0-6.5
